This note sets out measurements from publication PMC3554864.

This data set has as its target NS3 helicase (NS3, with protease domain) (Hepatitis C virus (genotype ), UniProt Q9WMX2 1027-1657). Put plainly: KMnO4 footprinting.

Chain of NS3 helicase (NS3, with protease domain) (Q9WMX2 1027-1657): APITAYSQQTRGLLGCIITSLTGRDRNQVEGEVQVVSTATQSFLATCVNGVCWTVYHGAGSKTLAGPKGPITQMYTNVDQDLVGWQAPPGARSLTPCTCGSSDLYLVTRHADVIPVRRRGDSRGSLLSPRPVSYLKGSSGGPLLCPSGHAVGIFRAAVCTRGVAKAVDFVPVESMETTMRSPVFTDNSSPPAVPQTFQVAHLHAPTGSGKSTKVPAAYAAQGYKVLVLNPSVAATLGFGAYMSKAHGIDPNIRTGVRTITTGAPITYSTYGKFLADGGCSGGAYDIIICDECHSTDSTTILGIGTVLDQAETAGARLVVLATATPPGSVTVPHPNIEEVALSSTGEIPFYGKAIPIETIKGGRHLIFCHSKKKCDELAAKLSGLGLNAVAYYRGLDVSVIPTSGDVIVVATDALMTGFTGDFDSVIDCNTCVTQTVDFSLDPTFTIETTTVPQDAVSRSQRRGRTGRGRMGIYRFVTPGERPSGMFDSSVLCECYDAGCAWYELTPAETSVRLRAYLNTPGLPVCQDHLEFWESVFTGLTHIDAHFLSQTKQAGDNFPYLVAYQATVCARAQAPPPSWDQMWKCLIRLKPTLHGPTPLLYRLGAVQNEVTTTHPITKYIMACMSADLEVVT

B1: 30mer blunt duplex (dsDNA)
DNA 1: GCTCTCTGTCTGTCTGTGTCTCTGTCTCTG
DNA 2: CAGAGACAGAGACACAGACAGACAGAGAGC
modifications: biotin (position not stated for this duplex)
On to B1, for which the binding result is recorded as “binds”.
